Measurements taken from patent US20140030267A1, “COMPOSITIONS, METHODS AND KITS RELATING TO RESISTIN” (The Trustees of the University of Pennsylvania, priority 1999, published 2014).

How the values were obtained:
[1] = test system: resistin gene expression; test: Northern blot of resistin gene expression in 3T3-L1 adipocytes treated with TZD; type: cell-based, murine; details: rosiglitazone 1 μM
Description: 3T3-L1 cells were differentiated to adipocytes then treated with the indicated vehicles (ethanol [EtOH] or dimethylsulfoxide [DMSO]) or with the indicated TZD compounds (each at 1 μM). Then, RNA was prepared and analyzed using Northern blot analysis using resistin cDNA probe.
FIG. 6 is an image of a Northern blot depicting the time course of resistin expression down-regulation by rosiglitazone. BRL49653 (rosiglitazone) was used at a concentration of 1 μM in DMSO. The Northern blot was probed using mouse resistin cDNA. The position of resistin mRNA is indicated in the image. 3T3-L1 cells were differentiated to adipocytes then treated with rosiglitazone (1 μM) for the indicated times (in hours) before RNA was isolated. Resistin expression was examined using Northern analysis using resistin cDNA probe.
To clone and identify resistin, 3T3-L1 cells were differentiated into adipocytes using a standard protocol using differentiation medium (DM) containing dexamethasone, insulin, isobutylmethylxanthine, and fetal bovine serum as described in Green and Kehinde (1975, Cell 5:19-27) and Green and Meuth (1974, Cell 3:127-133). On the seventh day of culture, the cells were treated with either dimethylsulfoxide (DMSO) or 1 micromolar BRL49653 (rosiglitazone) in DMSO. […]

[2] = Glucose tolerance test in mice after administration of resistin; type: in vivo
Description: Prior to injection into animals, 30 ml of conditioned media harvested from recombinant 293T cells expressing resistin was concentrated into 5 ml using an Ultrafree-15 centrifugal filter device (Millipore).
Male and female mice, 9 weeks of age, were administered 200 microliters of concentrated conditioned media intraperitonially just prior to the dark cycle. Mice were consequently fasted overnight. Twelve hours later, a second intraperitional dose of concentrated CM was administered to each animal. Two hours after the second administration, the mice were given a glucose challenge of 10 microliters per gram of body weight of 20% glucose in PBS solution. Blood glucose levels were determined using a Fast-Take glucometer (Johnson & Johnson) at thirty minute intervals for a two hour period.
The blood glucose levels of mice dosed with resistin are depicted using dotted lines in FIG. 21, and control glucose values are indicated using solid lines (FIG. 21). More specifically, eight female mice (4 per group) were treated with either vehicle (solid lines) or resistin preparation (dashed lines) prepared using conditioned medium obtained from recombinant 293T cells as described elsewhere herein.

Row | Molecule | time after exposure at which the effect on resistin expression is maximal [1] [h] | blood glucose 30 minutes after glucose administration ([2]; female mice, intraperitoneal resistin preparation, 30 minutes after glucose challenge) | glucose tolerance ([2]; mice, resistin preparation)
1 | CN(CCOc1ccc(CC2SC(=O)NC2=O)cc1)c1ccccn1 (stereo not drawn) [rosiglitazone] | 48 |  | 
2 | resistin: mouse resistin (SEQ ID NO:2) in concentrated conditioned medium of recombinant 293T cells expressing resistin (protein) SSMPLCPIDEAIDKKIKQDFNSLFPNAIKNIGLNCWTVSSRGKLASCPEGTAVLSCSCGSACGSWDIRGGKVCHCQCARIDWTAARCCKLQVAS |  | 395.+−0.67 mg/dl | reducing glucose tolerance to diabetic levels
